B1: Ornithine carbamoyltransferase (Saccharomyces cerevisiae), P05150 (parent)
chain: MSTTASTPSSLRHLISIKDLSDEEFRILVQRAQHFKNVFKANKTNDFQSNHLKLLGRTIALIFTKRSTRTRISTEGAATFFGAQPMFLGKEDIQLGVNESFYDTTKVVSSMVSCIFARVNKHEDILAFCKDSSVPIINSLCDKFHPLQAICDLLTIIENFNISLDEVNKGINSKLKMAWIGDANNVINDMCIACLKFGISVSISTPPGIEMDSDIVDEAKKVAERNGATFELTHDSLKASTNANILVTDTFVSMGEEFAKQAKLKQFKGFQINQELVSVADPNYKFMHCLPRHQEEVSDDVFYGEHSIVFEEAENRLYAAMSAIDIFVNNKGNFKDLK

Variants of: B1
Conditions: with argi_yeast CAR1, P00812
Sequence of argi_yeast CAR1, P00812 (P00812 whole entry): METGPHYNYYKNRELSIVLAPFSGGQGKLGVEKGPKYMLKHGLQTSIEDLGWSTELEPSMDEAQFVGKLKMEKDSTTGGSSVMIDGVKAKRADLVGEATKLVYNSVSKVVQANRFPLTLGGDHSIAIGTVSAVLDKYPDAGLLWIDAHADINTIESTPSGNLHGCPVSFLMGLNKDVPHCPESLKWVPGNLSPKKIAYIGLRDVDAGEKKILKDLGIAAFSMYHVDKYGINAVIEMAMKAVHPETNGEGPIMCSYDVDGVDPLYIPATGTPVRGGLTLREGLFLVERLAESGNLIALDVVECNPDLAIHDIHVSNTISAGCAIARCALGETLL

| effect of a mutation on the interaction | Variant |
| --- | --- |
| decreasing interaction | MSTTASTPSSLRHLISIKDLSDEEFRILVQRAQHFKNVFKANKTNDFQSNHLKLLGRTIALIFTKRSTRTRISTEGAATFFGAQPMFLGKEDIQLGVNESFYDTTKVVSSMVSCIFARVNKHEDILAFCKDSSVPIINSLCDKFHPLQAICDLLTIIENFNISLDEVNKGINSKLKMAWIGNANNVINDMCIACLKFGISVSISTPPGIEMDSDIVDEAKKVAERNGATFELTHDSLKASTNANILVTDTFVSMGEEFAKQAKLKQFKGFQINQELVSVADPNYKFMHCLPRHQEEVSDDVFYGEHSIVFEEAENRLYAAMSAIDIFVNNKGNFKDLK [D182N] |

From IntAct's records for PubMed 12679340
